{"source": "patent US20070258954A1", "biological_target": "fluorogenic OmpT peptide substrate (FIG. 10)", "assay": "cell-based or functional assay"}
{"substance": "OmpT protease of E. coli, expressed from multicopy plasmid pML19 in UT5600 cells (from UniProt P09169 21-317) (enzyme)", "values": [{"measurement": "mean fluorescence intensity of cells by FACS after 10 min exposure to the substrate", "value": 30, "unit": "fold"}]}
